Starred links: 1 amine or outer side, 2 acyl side, 3 side chain; linkers in the order of their positions; H or OH if unused. Non-standard residues stand in square brackets, D forms with d. Groups on a side chain read outwards from the residue. No end group written: not given here. *: point of attachment. C18 diacid = O=C(O)CCCCCCCCCCCCCCCCC(=O)*; γGlu = O=C(O)[C@H](CCC(=O)[*:2])N[*:1]; Ac4c = NC1(C(=O)O)CCC1; AEEA = NCCOCCOCC(=O)O; Aib = CC(C)(N)C(=O)O
B1: N^ε28-[2-[2-[2-[[2-[2-[2-[[(4S)-4-carboxy-4-[[(4S)-4-carboxy-4-[[(4S)-4-carboxy-4-(17-carboxyheptadecanoylamino)butanoyl]amino]butanoyl]amino]butanoyl]amino]eth … (peptide)
peptide: H[Aib]QGTFTSDLSKYLDARRARDFVQWLIK([AEEA-AEEA-γGlu-γGlu-γGlu-C18 diacid])T-NH2
modifications: N-terminus assumed
SMILES: CC[C@H](C)[C@H](NC(=O)[C@H](CC(C)C)NC(=O)[C@H](Cc1c[nH]c2ccccc12)NC(=O)[C@H](CCC(N)=O)NC(=O)[C@@H](NC(=O)[C@H](Cc1ccccc1)NC(=O)[C@H](CC(=O)O)NC(=O)[C@H](CCCNC(=N)N)NC(=O)[C@H](C)NC(=O)[C@H](CCCNC(=N)N)NC(=O)[C@H](CCCNC(=N)N)NC(=O)[C@H](C)NC(=O)[C@H](CC(=O)O)NC(=O)[C@H](CC(C)C)NC(=O)[C@H](Cc1ccc(O)cc1)NC(=O)[C@H](CCCCN)NC(=O)[C@H](CO)NC(=O)[C@H](CC(C)C)NC(=O)[C@H](CC(=O)O)NC(=O)[C@H](CO)NC(=O)[C@@H](NC(=O)[C@H](Cc1ccccc1)NC(=O)[C@@H](NC(=O)CNC(=O)[C@H](CCC(N)=O)NC(=O)C(C)(C)NC(=O)[C@@H](N)Cc1c[nH]cn1)[C@@H](C)O)[C@@H](C)O)C(C)C)C(=O)N[C@@H](CCCCNC(=O)COCCOCCNC(=O)COCCOCCNC(=O)CC[C@H](NC(=O)CC[C@H](NC(=O)CC[C@H](NC(=O)CCCCCCCCCCCCCCCCC(=O)O)C(=O)O)C(=O)O)C(=O)O)C(=O)N[C@H](C(N)=O)[C@@H](C)O
notes: also called Chem. 5; Chem 5
B2: N^ε24-[2-[2-[2-[[2-[2-[2-[[(4S)-4-carboxy-4-[[(4S)-4-carboxy-4-[[(4S)-4-carboxy-4-(17-carboxyheptadecanoylamino)butanoyl]amino]butanoyl]amino]butanoyl]amino]eth … (peptide)
peptide: H[Aib]QGTFTSDYSKYLDARRARDFVK([AEEA-AEEA-γGlu-γGlu-γGlu-C18 diacid])WLIST-NH2
modifications: N-terminus assumed
SMILES: CC[C@H](C)[C@H](NC(=O)[C@H](CC(C)C)NC(=O)[C@H](Cc1c[nH]c2ccccc12)NC(=O)[C@H](CCCCNC(=O)COCCOCCNC(=O)COCCOCCNC(=O)CC[C@H](NC(=O)CC[C@H](NC(=O)CC[C@H](NC(=O)CCCCCCCCCCCCCCCCC(=O)O)C(=O)O)C(=O)O)C(=O)O)NC(=O)[C@@H](NC(=O)[C@H](Cc1ccccc1)NC(=O)[C@H](CC(=O)O)NC(=O)[C@H](CCCNC(=N)N)NC(=O)[C@H](C)NC(=O)[C@H](CCCNC(=N)N)NC(=O)[C@H](CCCNC(=N)N)NC(=O)[C@H](C)NC(=O)[C@H](CC(=O)O)NC(=O)[C@H](CC(C)C)NC(=O)[C@H](Cc1ccc(O)cc1)NC(=O)[C@H](CCCCN)NC(=O)[C@H](CO)NC(=O)[C@H](Cc1ccc(O)cc1)NC(=O)[C@H](CC(=O)O)NC(=O)[C@H](CO)NC(=O)[C@@H](NC(=O)[C@H](Cc1ccccc1)NC(=O)[C@@H](NC(=O)CNC(=O)[C@H](CCC(N)=O)NC(=O)C(C)(C)NC(=O)[C@@H](N)Cc1c[nH]cn1)[C@@H](C)O)[C@@H](C)O)C(C)C)C(=O)N[C@@H](CO)C(=O)N[C@H](C(N)=O)[C@@H](C)O
notes: also called Chem. 1; Chem 1
B3: N^ε24-[2-[2-[2-[[2-[2-[2-[[(4S)-4-carboxy-4-[[(4S)-4-carboxy-4-[[(4S)-4-carboxy-4-(17-carboxyheptadecanoylamino)butanoyl]amino]butanoyl]amino]butanoyl]amino]eth … (peptide)
peptide: H[Aib]QGTFTSDYSKYLDARRAREFVK([AEEA-AEEA-γGlu-γGlu-γGlu-C18 diacid])WLIST-NH2
modifications: N-terminus assumed
SMILES: CC[C@H](C)[C@H](NC(=O)[C@H](CC(C)C)NC(=O)[C@H](Cc1c[nH]c2ccccc12)NC(=O)[C@H](CCCCNC(=O)COCCOCCNC(=O)COCCOCCNC(=O)CC[C@H](NC(=O)CC[C@H](NC(=O)CC[C@H](NC(=O)CCCCCCCCCCCCCCCCC(=O)O)C(=O)O)C(=O)O)C(=O)O)NC(=O)[C@@H](NC(=O)[C@H](Cc1ccccc1)NC(=O)[C@H](CCC(=O)O)NC(=O)[C@H](CCCNC(=N)N)NC(=O)[C@H](C)NC(=O)[C@H](CCCNC(=N)N)NC(=O)[C@H](CCCNC(=N)N)NC(=O)[C@H](C)NC(=O)[C@H](CC(=O)O)NC(=O)[C@H](CC(C)C)NC(=O)[C@H](Cc1ccc(O)cc1)NC(=O)[C@H](CCCCN)NC(=O)[C@H](CO)NC(=O)[C@H](Cc1ccc(O)cc1)NC(=O)[C@H](CC(=O)O)NC(=O)[C@H](CO)NC(=O)[C@@H](NC(=O)[C@H](Cc1ccccc1)NC(=O)[C@@H](NC(=O)CNC(=O)[C@H](CCC(N)=O)NC(=O)C(C)(C)NC(=O)[C@@H](N)Cc1c[nH]cn1)[C@@H](C)O)[C@@H](C)O)C(C)C)C(=O)N[C@@H](CO)C(=O)N[C@H](C(N)=O)[C@@H](C)O
notes: also called Chem. 4; Chem 4
B4: N^ε24-[2-[2-[2-[[2-[2-[2-[[(4S)-4-carboxy-4-[[(4S)-4-carboxy-4-[[(4S)-4-carboxy-4-(17-carboxyheptadecanoylamino)butanoyl]amino]butanoyl]amino]butanoyl]amino]eth … (peptide)
peptide: H[Aib]QGTFTSDYSKYLDLRRARDFVK([AEEA-AEEA-γGlu-γGlu-γGlu-C18 diacid])WLIST-NH2
modifications: N-terminus assumed
SMILES: CC[C@H](C)[C@H](NC(=O)[C@H](CC(C)C)NC(=O)[C@H](Cc1c[nH]c2ccccc12)NC(=O)[C@H](CCCCNC(=O)COCCOCCNC(=O)COCCOCCNC(=O)CC[C@H](NC(=O)CC[C@H](NC(=O)CC[C@H](NC(=O)CCCCCCCCCCCCCCCCC(=O)O)C(=O)O)C(=O)O)C(=O)O)NC(=O)[C@@H](NC(=O)[C@H](Cc1ccccc1)NC(=O)[C@H](CC(=O)O)NC(=O)[C@H](CCCNC(=N)N)NC(=O)[C@H](C)NC(=O)[C@H](CCCNC(=N)N)NC(=O)[C@H](CCCNC(=N)N)NC(=O)[C@H](CC(C)C)NC(=O)[C@H](CC(=O)O)NC(=O)[C@H](CC(C)C)NC(=O)[C@H](Cc1ccc(O)cc1)NC(=O)[C@H](CCCCN)NC(=O)[C@H](CO)NC(=O)[C@H](Cc1ccc(O)cc1)NC(=O)[C@H](CC(=O)O)NC(=O)[C@H](CO)NC(=O)[C@@H](NC(=O)[C@H](Cc1ccccc1)NC(=O)[C@@H](NC(=O)CNC(=O)[C@H](CCC(N)=O)NC(=O)C(C)(C)NC(=O)[C@@H](N)Cc1c[nH]cn1)[C@@H](C)O)[C@@H](C)O)C(C)C)C(=O)N[C@@H](CO)C(=O)N[C@H](C(N)=O)[C@@H](C)O
notes: also called Chem. 12; Chem 12
B5: N^ε24-[2-[2-[2-[[2-[2-[2-[[(4S)-4-carboxy-4-[[(4S)-4-carboxy-4-[[(4S)-4-carboxy-4-(17-carboxyheptadecanoylamino)butanoyl]amino]butanoyl]amino]butanoyl]amino]eth … (peptide)
peptide: H[Aib]QGTFTSDYSKYLESRRARDFVK([AEEA-AEEA-γGlu-γGlu-γGlu-C18 diacid])WLIST-NH2
modifications: N-terminus assumed
SMILES: CC[C@H](C)[C@H](NC(=O)[C@H](CC(C)C)NC(=O)[C@H](Cc1c[nH]c2ccccc12)NC(=O)[C@H](CCCCNC(=O)COCCOCCNC(=O)COCCOCCNC(=O)CC[C@H](NC(=O)CC[C@H](NC(=O)CC[C@H](NC(=O)CCCCCCCCCCCCCCCCC(=O)O)C(=O)O)C(=O)O)C(=O)O)NC(=O)[C@@H](NC(=O)[C@H](Cc1ccccc1)NC(=O)[C@H](CC(=O)O)NC(=O)[C@H](CCCNC(=N)N)NC(=O)[C@H](C)NC(=O)[C@H](CCCNC(=N)N)NC(=O)[C@H](CCCNC(=N)N)NC(=O)[C@H](CO)NC(=O)[C@H](CCC(=O)O)NC(=O)[C@H](CC(C)C)NC(=O)[C@H](Cc1ccc(O)cc1)NC(=O)[C@H](CCCCN)NC(=O)[C@H](CO)NC(=O)[C@H](Cc1ccc(O)cc1)NC(=O)[C@H](CC(=O)O)NC(=O)[C@H](CO)NC(=O)[C@@H](NC(=O)[C@H](Cc1ccccc1)NC(=O)[C@@H](NC(=O)CNC(=O)[C@H](CCC(N)=O)NC(=O)C(C)(C)NC(=O)[C@@H](N)Cc1c[nH]cn1)[C@@H](C)O)[C@@H](C)O)C(C)C)C(=O)N[C@@H](CO)C(=O)N[C@H](C(N)=O)[C@@H](C)O
notes: also called Chem. 11; Chem 11
B6: N^ε24-[2-[2-[2-[[2-[2-[2-[[(4S)-4-carboxy-4-[[(4S)-4-carboxy-4-[[(4S)-4-carboxy-4-(17-carboxyheptadecanoylamino)butanoyl]amino]butanoyl]amino]butanoyl]amino]eth … (peptide)
peptide: H[Aib]QGTFTSDYSKYLDAKRAREFVK([AEEA-AEEA-γGlu-γGlu-γGlu-C18 diacid])WLIST-NH2
modifications: N-terminus assumed
SMILES: CC[C@H](C)[C@H](NC(=O)[C@H](CC(C)C)NC(=O)[C@H](Cc1c[nH]c2ccccc12)NC(=O)[C@H](CCCCNC(=O)COCCOCCNC(=O)COCCOCCNC(=O)CC[C@H](NC(=O)CC[C@H](NC(=O)CC[C@H](NC(=O)CCCCCCCCCCCCCCCCC(=O)O)C(=O)O)C(=O)O)C(=O)O)NC(=O)[C@@H](NC(=O)[C@H](Cc1ccccc1)NC(=O)[C@H](CCC(=O)O)NC(=O)[C@H](CCCNC(=N)N)NC(=O)[C@H](C)NC(=O)[C@H](CCCNC(=N)N)NC(=O)[C@H](CCCCN)NC(=O)[C@H](C)NC(=O)[C@H](CC(=O)O)NC(=O)[C@H](CC(C)C)NC(=O)[C@H](Cc1ccc(O)cc1)NC(=O)[C@H](CCCCN)NC(=O)[C@H](CO)NC(=O)[C@H](Cc1ccc(O)cc1)NC(=O)[C@H](CC(=O)O)NC(=O)[C@H](CO)NC(=O)[C@@H](NC(=O)[C@H](Cc1ccccc1)NC(=O)[C@@H](NC(=O)CNC(=O)[C@H](CCC(N)=O)NC(=O)C(C)(C)NC(=O)[C@@H](N)Cc1c[nH]cn1)[C@@H](C)O)[C@@H](C)O)C(C)C)C(=O)N[C@@H](CO)C(=O)N[C@H](C(N)=O)[C@@H](C)O
notes: also called Chem. 2; Chem 2

Assays:
human glucagon receptor [1] = molecular target: T1, human glucagon receptor (human, UniProt P47871 26-477); assay: cell-based or functional assay
human GLP-1 receptor [2] = molecular target: T2, human GLP-1 receptor (human, UniProt P43220 24-463); assay: cell-based or functional assay
human glucagon receptor [3] = molecular target: T1, human glucagon receptor; assay: displacement of [125I]-glucagon from BHK membranes with human glucagon receptor, SPA, no serum albumin
human GLP-1 receptor [4] = molecular target: T2, human GLP-1 receptor; assay: displacement of [125I]-GLP-1-(7-36)NH2 from BHK membranes with human GLP-1R, SPA, no serum albumin

T1 sequence (P47871 26-477): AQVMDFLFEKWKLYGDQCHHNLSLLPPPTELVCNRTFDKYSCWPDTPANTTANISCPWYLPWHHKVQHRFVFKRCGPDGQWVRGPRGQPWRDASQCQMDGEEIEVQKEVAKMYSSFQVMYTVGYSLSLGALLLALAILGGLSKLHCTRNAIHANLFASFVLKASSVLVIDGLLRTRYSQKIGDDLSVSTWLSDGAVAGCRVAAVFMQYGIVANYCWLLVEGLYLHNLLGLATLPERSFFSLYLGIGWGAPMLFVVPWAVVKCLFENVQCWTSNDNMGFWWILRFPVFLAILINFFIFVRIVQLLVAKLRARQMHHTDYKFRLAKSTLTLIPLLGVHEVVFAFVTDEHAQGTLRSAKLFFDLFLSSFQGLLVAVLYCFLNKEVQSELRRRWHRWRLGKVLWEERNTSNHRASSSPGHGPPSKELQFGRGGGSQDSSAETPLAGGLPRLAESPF

Binder | GlucagonR EC50 (pM), [Assay (I)(b)], CRE luciferase reporter, BHK cells (human glucagon receptor [1]) | GLP-1R EC50 (pM) [Assay (I)(a)], CRE luciferase reporter, BHK cells (human GLP-1 receptor [2]) | IC50 (human glucagon receptor [3]) | IC50 (human GLP-1 receptor [4])
B1 | 29 pM | 5.5 pM | 6.7 nM | 0.1 nM
B2 | 17.5 pM | 3.5 pM | 11.3 nM | 0.9 nM
H[Ac4c]QGTFTSDLSKYLESRRAREFVQWLIK([AEEA-AEEA-γGlu-γGlu-C18 diacid])T-NH2 (also called Chem. 18; Chem 18) | 32 pM | 4 pM | 11.1 nM | 0.1 nM
B3 | 12 pM | 3 pM | 3.9 nM | 0.1 nM
B4 | 108 pM | 29 pM | 95.9 nM | 2.8 nM
B5 | 428 pM | 8 pM | 52 nM | 0.5 nM
B6 | 10 pM | 2 pM | 7.5 nM | 0.3 nM

Source: US20170101454A1 (Novo Nordisk, published 2017)
